These results are taken from patent publication US20170101454A1 (Novo Nordisk, published 2017).

Assay [1] addresses T1, human GLP-1 receptor (human, UniProt P43220 24-463). Briefly: cell-based or functional assay.
Assay [2] has as its target T2, human glucagon receptor (human, UniProt P47871 26-477). Briefly: cell-based or functional assay.
Assay [3] deals with T1, human GLP-1 receptor. The assay can be described thus: displacement of [125I]-GLP-1-(7-36)NH2 from BHK membranes with human GLP-1R, SPA, no serum albumin. On the technique in general: Loss of bound radioactivity is the signal in a displacement assay; it reports binding, not function.
Assay [4] has as its target T2, human glucagon receptor. The assay can be described thus: displacement of [125I]-glucagon from BHK membranes with human glucagon receptor, SPA, no serum albumin.

Starred links: 1 amine or outer side, 2 acyl side, 3 side chain; linkers in the order of their positions; H or OH if unused. Non-standard residues stand in square brackets, D forms with d. Groups on a side chain read outwards from the residue. No end group written: not given here. *: point of attachment. C18 diacid = O=C(O)CCCCCCCCCCCCCCCCC(=O)*; γGlu = O=C(O)[C@H](CCC(=O)[*:2])N[*:1]; Ac4c = NC1(C(=O)O)CCC1; AEEA = NCCOCCOCC(=O)O; Aib = CC(C)(N)C(=O)O

T2 sequence (P47871 26-477): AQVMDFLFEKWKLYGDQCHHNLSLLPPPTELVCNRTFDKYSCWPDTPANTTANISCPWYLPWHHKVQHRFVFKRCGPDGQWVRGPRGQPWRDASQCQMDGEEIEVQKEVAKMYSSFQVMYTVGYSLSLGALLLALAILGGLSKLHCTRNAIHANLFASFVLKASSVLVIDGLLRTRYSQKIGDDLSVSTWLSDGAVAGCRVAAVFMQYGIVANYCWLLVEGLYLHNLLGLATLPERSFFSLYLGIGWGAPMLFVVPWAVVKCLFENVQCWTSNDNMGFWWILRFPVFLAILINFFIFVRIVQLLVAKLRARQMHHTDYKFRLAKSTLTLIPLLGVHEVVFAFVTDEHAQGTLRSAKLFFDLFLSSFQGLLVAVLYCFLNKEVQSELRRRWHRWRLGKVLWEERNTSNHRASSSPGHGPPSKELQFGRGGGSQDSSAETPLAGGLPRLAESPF

B1: N^ε24-[2-[2-[2-[[2-[2-[2-[[(4S)-4-carboxy-4-[[(4S)-4-carboxy-4-[[(4S)-4-carboxy-4-(17-carboxyheptadecanoylamino)butanoyl]amino]butanoyl]amino]butanoyl]amino]eth … (peptide)
peptide: H[Aib]QGTFTSDYSKYLDLRRARDFVK([AEEA-AEEA-γGlu-γGlu-γGlu-C18 diacid])WLIST-NH2
modifications: N-terminus assumed
SMILES: CC[C@H](C)[C@H](NC(=O)[C@H](CC(C)C)NC(=O)[C@H](Cc1c[nH]c2ccccc12)NC(=O)[C@H](CCCCNC(=O)COCCOCCNC(=O)COCCOCCNC(=O)CC[C@H](NC(=O)CC[C@H](NC(=O)CC[C@H](NC(=O)CCCCCCCCCCCCCCCCC(=O)O)C(=O)O)C(=O)O)C(=O)O)NC(=O)[C@@H](NC(=O)[C@H](Cc1ccccc1)NC(=O)[C@H](CC(=O)O)NC(=O)[C@H](CCCNC(=N)N)NC(=O)[C@H](C)NC(=O)[C@H](CCCNC(=N)N)NC(=O)[C@H](CCCNC(=N)N)NC(=O)[C@H](CC(C)C)NC(=O)[C@H](CC(=O)O)NC(=O)[C@H](CC(C)C)NC(=O)[C@H](Cc1ccc(O)cc1)NC(=O)[C@H](CCCCN)NC(=O)[C@H](CO)NC(=O)[C@H](Cc1ccc(O)cc1)NC(=O)[C@H](CC(=O)O)NC(=O)[C@H](CO)NC(=O)[C@@H](NC(=O)[C@H](Cc1ccccc1)NC(=O)[C@@H](NC(=O)CNC(=O)[C@H](CCC(N)=O)NC(=O)C(C)(C)NC(=O)[C@@H](N)Cc1c[nH]cn1)[C@@H](C)O)[C@@H](C)O)C(C)C)C(=O)N[C@@H](CO)C(=O)N[C@H](C(N)=O)[C@@H](C)O
notes: also called Chem. 12; Chem 12
The IC50 is the concentration at which inhibition is half-maximal. For B1, the “GLP-1R EC50 (pM) [Assay (I)(a)], CRE luciferase reporter, BHK cells” value (from here on “GLP-1R EC50 (pM) [Assay (I)(a)]”) in assay [1] worked out at 29 pM. The “GlucagonR EC50 (pM), [Assay (I)(b)], CRE luciferase reporter, BHK cells” value (“GlucagonR EC50 (pM), [Assay (I)(b)]” below) in assay [2] stood at 108 pM. Moreover, the results for the IC50 in assay [3] and in assay [4] were 2.8 nM and 95.9 nM, respectively.

B2: N^ε24-[2-[2-[2-[[2-[2-[2-[[(4S)-4-carboxy-4-[[(4S)-4-carboxy-4-[[(4S)-4-carboxy-4-(17-carboxyheptadecanoylamino)butanoyl]amino]butanoyl]amino]butanoyl]amino]eth … (peptide)
peptide: H[Aib]QGTFTSDYSKYLDARRAREFVK([AEEA-AEEA-γGlu-γGlu-γGlu-C18 diacid])WLIST-NH2
modifications: N-terminus assumed
SMILES: CC[C@H](C)[C@H](NC(=O)[C@H](CC(C)C)NC(=O)[C@H](Cc1c[nH]c2ccccc12)NC(=O)[C@H](CCCCNC(=O)COCCOCCNC(=O)COCCOCCNC(=O)CC[C@H](NC(=O)CC[C@H](NC(=O)CC[C@H](NC(=O)CCCCCCCCCCCCCCCCC(=O)O)C(=O)O)C(=O)O)C(=O)O)NC(=O)[C@@H](NC(=O)[C@H](Cc1ccccc1)NC(=O)[C@H](CCC(=O)O)NC(=O)[C@H](CCCNC(=N)N)NC(=O)[C@H](C)NC(=O)[C@H](CCCNC(=N)N)NC(=O)[C@H](CCCNC(=N)N)NC(=O)[C@H](C)NC(=O)[C@H](CC(=O)O)NC(=O)[C@H](CC(C)C)NC(=O)[C@H](Cc1ccc(O)cc1)NC(=O)[C@H](CCCCN)NC(=O)[C@H](CO)NC(=O)[C@H](Cc1ccc(O)cc1)NC(=O)[C@H](CC(=O)O)NC(=O)[C@H](CO)NC(=O)[C@@H](NC(=O)[C@H](Cc1ccccc1)NC(=O)[C@@H](NC(=O)CNC(=O)[C@H](CCC(N)=O)NC(=O)C(C)(C)NC(=O)[C@@H](N)Cc1c[nH]cn1)[C@@H](C)O)[C@@H](C)O)C(C)C)C(=O)N[C@@H](CO)C(=O)N[C@H](C(N)=O)[C@@H](C)O
notes: also called Chem. 4; Chem 4
Regarding B2, in assay [1], the “GLP-1R EC50 (pM) [Assay (I)(a)]” value stood at 3 pM. In addition, the “GlucagonR EC50 (pM), [Assay (I)(b)]” value in assay [2] stood at 12 pM. Also, the IC50 in assay [3] came out at 0.1 nM; in assay [4] it was 3.9 nM.

B3: N^ε24-[2-[2-[2-[[2-[2-[2-[[(4S)-4-carboxy-4-[[(4S)-4-carboxy-4-[[(4S)-4-carboxy-4-(17-carboxyheptadecanoylamino)butanoyl]amino]butanoyl]amino]butanoyl]amino]eth … (peptide)
peptide: H[Aib]QGTFTSDYSKYLDAKRAREFVK([AEEA-AEEA-γGlu-γGlu-γGlu-C18 diacid])WLIST-NH2
modifications: N-terminus assumed
SMILES: CC[C@H](C)[C@H](NC(=O)[C@H](CC(C)C)NC(=O)[C@H](Cc1c[nH]c2ccccc12)NC(=O)[C@H](CCCCNC(=O)COCCOCCNC(=O)COCCOCCNC(=O)CC[C@H](NC(=O)CC[C@H](NC(=O)CC[C@H](NC(=O)CCCCCCCCCCCCCCCCC(=O)O)C(=O)O)C(=O)O)C(=O)O)NC(=O)[C@@H](NC(=O)[C@H](Cc1ccccc1)NC(=O)[C@H](CCC(=O)O)NC(=O)[C@H](CCCNC(=N)N)NC(=O)[C@H](C)NC(=O)[C@H](CCCNC(=N)N)NC(=O)[C@H](CCCCN)NC(=O)[C@H](C)NC(=O)[C@H](CC(=O)O)NC(=O)[C@H](CC(C)C)NC(=O)[C@H](Cc1ccc(O)cc1)NC(=O)[C@H](CCCCN)NC(=O)[C@H](CO)NC(=O)[C@H](Cc1ccc(O)cc1)NC(=O)[C@H](CC(=O)O)NC(=O)[C@H](CO)NC(=O)[C@@H](NC(=O)[C@H](Cc1ccccc1)NC(=O)[C@@H](NC(=O)CNC(=O)[C@H](CCC(N)=O)NC(=O)C(C)(C)NC(=O)[C@@H](N)Cc1c[nH]cn1)[C@@H](C)O)[C@@H](C)O)C(C)C)C(=O)N[C@@H](CO)C(=O)N[C@H](C(N)=O)[C@@H](C)O
notes: also called Chem. 2; Chem 2
Turning to B3, in assay [1], the “GLP-1R EC50 (pM) [Assay (I)(a)]” value was 2 pM. Further, the “GlucagonR EC50 (pM), [Assay (I)(b)]” value in assay [2] amounted to 10 pM. The IC50 amounted to 0.3 nM in assay [3] and 7.5 nM in assay [4].

B4: N^ε28-[2-[2-[2-[[2-[2-[2-[[(4S)-4-carboxy-4-[[(4S)-4-carboxy-4-(17-carboxyheptadecanoylamino)butanoyl]amino]butanoyl]amino]ethoxy]ethoxy]acetyl]amino]ethoxy]eth … (peptide)
peptide: H[Ac4c]QGTFTSDLSKYLESRRAREFVQWLIK([AEEA-AEEA-γGlu-γGlu-C18 diacid])T-NH2
notes: also called Chem. 18; Chem 18
For B4, the “GLP-1R EC50 (pM) [Assay (I)(a)]” value in assay [1] was 4 pM. Also, the “GlucagonR EC50 (pM), [Assay (I)(b)]” value in assay [2] was determined as 32 pM. Besides, the half-inhibitory concentration (IC50) came out at 0.1 nM in assay [3] and 11.1 nM in assay [4].

B5: N^ε28-[2-[2-[2-[[2-[2-[2-[[(4S)-4-carboxy-4-[[(4S)-4-carboxy-4-[[(4S)-4-carboxy-4-(17-carboxyheptadecanoylamino)butanoyl]amino]butanoyl]amino]butanoyl]amino]eth … (peptide)
peptide: H[Aib]QGTFTSDLSKYLDARRAQDFVQWLIK([AEEA-AEEA-γGlu-γGlu-γGlu-C18 diacid])T-NH2
modifications: N-terminus assumed
SMILES: CC[C@H](C)[C@H](NC(=O)[C@H](CC(C)C)NC(=O)[C@H](Cc1c[nH]c2ccccc12)NC(=O)[C@H](CCC(N)=O)NC(=O)[C@@H](NC(=O)[C@H](Cc1ccccc1)NC(=O)[C@H](CC(=O)O)NC(=O)[C@H](CCC(N)=O)NC(=O)[C@H](C)NC(=O)[C@H](CCCNC(=N)N)NC(=O)[C@H](CCCNC(=N)N)NC(=O)[C@H](C)NC(=O)[C@H](CC(=O)O)NC(=O)[C@H](CC(C)C)NC(=O)[C@H](Cc1ccc(O)cc1)NC(=O)[C@H](CCCCN)NC(=O)[C@H](CO)NC(=O)[C@H](CC(C)C)NC(=O)[C@H](CC(=O)O)NC(=O)[C@H](CO)NC(=O)[C@@H](NC(=O)[C@H](Cc1ccccc1)NC(=O)[C@@H](NC(=O)CNC(=O)[C@H](CCC(N)=O)NC(=O)C(C)(C)NC(=O)[C@@H](N)Cc1c[nH]cn1)[C@@H](C)O)[C@@H](C)O)C(C)C)C(=O)N[C@@H](CCCCNC(=O)COCCOCCNC(=O)COCCOCCNC(=O)CC[C@H](NC(=O)CC[C@H](NC(=O)CC[C@H](NC(=O)CCCCCCCCCCCCCCCCC(=O)O)C(=O)O)C(=O)O)C(=O)O)C(=O)N[C@H](C(N)=O)[C@@H](C)O
notes: also called Chem. 7; Chem 7
As to B5, in assay [1], the “GLP-1R EC50 (pM) [Assay (I)(a)]” value is 2 pM. In addition, the “GlucagonR EC50 (pM), [Assay (I)(b)]” value in assay [2] was 32 pM. For the same molecule, the IC50 worked out at 0.3 nM in assay [3] and 6 nM in assay [4].

B6: N^ε28-[2-[2-[2-[[2-[2-[2-[[(4S)-4-carboxy-4-[[(4S)-4-carboxy-4-[[(4S)-4-carboxy-4-(17-carboxyheptadecanoylamino)butanoyl]amino]butanoyl]amino]butanoyl]amino]eth … (peptide)
peptide: H[Aib]QGTFTSDLSKYLDARRAREFVQWLIK([AEEA-AEEA-γGlu-γGlu-γGlu-C18 diacid])T-NH2
modifications: N-terminus assumed
SMILES: CC[C@H](C)[C@H](NC(=O)[C@H](CC(C)C)NC(=O)[C@H](Cc1c[nH]c2ccccc12)NC(=O)[C@H](CCC(N)=O)NC(=O)[C@@H](NC(=O)[C@H](Cc1ccccc1)NC(=O)[C@H](CCC(=O)O)NC(=O)[C@H](CCCNC(=N)N)NC(=O)[C@H](C)NC(=O)[C@H](CCCNC(=N)N)NC(=O)[C@H](CCCNC(=N)N)NC(=O)[C@H](C)NC(=O)[C@H](CC(=O)O)NC(=O)[C@H](CC(C)C)NC(=O)[C@H](Cc1ccc(O)cc1)NC(=O)[C@H](CCCCN)NC(=O)[C@H](CO)NC(=O)[C@H](CC(C)C)NC(=O)[C@H](CC(=O)O)NC(=O)[C@H](CO)NC(=O)[C@@H](NC(=O)[C@H](Cc1ccccc1)NC(=O)[C@@H](NC(=O)CNC(=O)[C@H](CCC(N)=O)NC(=O)C(C)(C)NC(=O)[C@@H](N)Cc1c[nH]cn1)[C@@H](C)O)[C@@H](C)O)C(C)C)C(=O)N[C@@H](CCCCNC(=O)COCCOCCNC(=O)COCCOCCNC(=O)CC[C@H](NC(=O)CC[C@H](NC(=O)CC[C@H](NC(=O)CCCCCCCCCCCCCCCCC(=O)O)C(=O)O)C(=O)O)C(=O)O)C(=O)N[C@H](C(N)=O)[C@@H](C)O
notes: also called Chem. 6; Chem 6
On to B6, for which the “GLP-1R EC50 (pM) [Assay (I)(a)]” value in assay [1] worked out at 5 pM. For the same molecule, in assay [2], the “GlucagonR EC50 (pM), [Assay (I)(b)]” value is 14 pM. The IC50 stood at 0.1 nM in assay [3] and 3.7 nM in assay [4].

B7: N^ε28-[2-[2-[2-[[2-[2-[2-[[(4S)-4-carboxy-4-[[(4S)-4-carboxy-4-[[(4S)-4-carboxy-4-(17-carboxyheptadecanoylamino)butanoyl]amino]butanoyl]amino]butanoyl]amino]eth … (peptide)
peptide: H[Aib]QGTFTSDLSKYLESRRAQDFVQWLIK([AEEA-AEEA-γGlu-γGlu-γGlu-C18 diacid])T-NH2
modifications: N-terminus assumed
SMILES: CC[C@H](C)[C@H](NC(=O)[C@H](CC(C)C)NC(=O)[C@H](Cc1c[nH]c2ccccc12)NC(=O)[C@H](CCC(N)=O)NC(=O)[C@@H](NC(=O)[C@H](Cc1ccccc1)NC(=O)[C@H](CC(=O)O)NC(=O)[C@H](CCC(N)=O)NC(=O)[C@H](C)NC(=O)[C@H](CCCNC(=N)N)NC(=O)[C@H](CCCNC(=N)N)NC(=O)[C@H](CO)NC(=O)[C@H](CCC(=O)O)NC(=O)[C@H](CC(C)C)NC(=O)[C@H](Cc1ccc(O)cc1)NC(=O)[C@H](CCCCN)NC(=O)[C@H](CO)NC(=O)[C@H](CC(C)C)NC(=O)[C@H](CC(=O)O)NC(=O)[C@H](CO)NC(=O)[C@@H](NC(=O)[C@H](Cc1ccccc1)NC(=O)[C@@H](NC(=O)CNC(=O)[C@H](CCC(N)=O)NC(=O)C(C)(C)NC(=O)[C@@H](N)Cc1c[nH]cn1)[C@@H](C)O)[C@@H](C)O)C(C)C)C(=O)N[C@@H](CCCCNC(=O)COCCOCCNC(=O)COCCOCCNC(=O)CC[C@H](NC(=O)CC[C@H](NC(=O)CC[C@H](NC(=O)CCCCCCCCCCCCCCCCC(=O)O)C(=O)O)C(=O)O)C(=O)O)C(=O)N[C@H](C(N)=O)[C@@H](C)O
notes: also called Chem. 8; Chem 8
As for B7, the “GLP-1R EC50 (pM) [Assay (I)(a)]” value in assay [1] is 7 pM. Moreover, in assay [2], the “GlucagonR EC50 (pM), [Assay (I)(b)]” value turned out to be 517 pM. The IC50 amounted to 0.1 nM in assay [3] and 27.6 nM in assay [4].
